Experimental findings from patent US9163048B2, “Multi-functional nucleic acid-based anti-cancer drug capable of targeting and therapy, method for preparing same and anti-cancer composition comprising same” (RESEARCH & BUSINESS FOUNDATION SUNGKYUNKWAN UNIVERSITY, priority 2011, dated 2015) are described below.

For data set [1], the system named is prostate cancer cells (LNCaP cell line). The data set is described as follows: Anticancer effect, acridine orange / propidium iodide staining, confocal microscope. It is filed as cell-based. The following applies: 2 hours treatment, 24 hours culture, NIR radiation 10 minutes, 10 μM contained doxorubicin. How it is done: In addition, after the cells were treated with 10 μM (concentration of the contained doxorubicin) of the multifunctional nucleic-acid-based anticancer drug for 2 hours, the medium was exchanged with a fresh RPMI 1640 medium to remove the multifunctional nucleic-acid-based anticancer drug remaining at an outside of the cells, and the cells were cultured for 24 hours. Afterward, the cells were irradiated with […] for 10 minutes, and stained with acridine orange and propidium iodide (PI). As a control group, instead of the multifunctional nucleic-acid-based anticancer drug, a test was performed using phosphate buffered saline, doxorubicin, gold nanoparticles, an A10 aptamer and an anticancer-drug-captured nucleic acid structure.
This means that the multifunctional nucleic-acid-based anticancer drug can kill cells more effectively by applying both doxorubicin (chemotherapy) and an exothermic effect (thermal treatment).

Data set [2] is described as follows: Capture of doxorubicin in linear nucleic acid, autofluorescence of unbound doxorubicin in supernatant. The following applies: per 1 μM linear nucleic acid (SEQ ID NOs 1 and 2); room temperature, 24 hours. It is filed as physicochemical. An excerpt: A supernatant was retrieved, and autofluorescence of the doxorubicin not binding to the linear nucleic acid was detected using a molecular device (SpectraMax M2 Microplate Reader).

Take `COc1cccc2c1C(=O)c1c(O)c3c(c(O)c1C2=O)C[C@@](O)(C(=O)CO)C[C@@H]3O[C@H]1C[C@H](N)[C@H](O)[C@H](C)O1` [doxorubicin, reference compound]: the “cell death (PI staining, red fluorescence)” value in data set [1] is “dead cells stained with PI were observed”.

B1: linear nucleic acid (nucleic acid)
chain 1: GCTACGAGTAGGTACGGATCTGGCTGTACTGATGTGCCTGCGAC
chain 2: GTCGCAGGCACATCAGTACAGCCAGATCCGTACCTACTCG
modifications: chemistry not given here
Regarding B1, the “maximum doxorubicin bound per 1 μM linear nucleic acid” value in data set [2] came to 10 µM. For the same molecule, in data set [1], the “cell death (PI staining, red fluorescence)” value is “red fluorescence was hardly observed”.
